Reference: patent US20080280300A1, “Method” (PLASTICELL LIMITED, priority 2005, published 2008)

B1: TPO: murine thrombopoietin (R&D Systems), haematopoietic growth factor (protein, UniProt P40226 22-356, looked up)
Thrombopoietin: SPVAPACDPRLLNKLLRDSHLLHSRLSQCPDVDPLSIPVLLPAVDFSLGEWKTQTEQSKAQDILGAVSLLLEGVMAARGQLEPSCLSSLLGQLSGQVRLLLGALQGLLGTQLPLQGRTTAHKDPNALFLSLQQLLRGKVRFLLLVEGPTLCVRRTLPTTAVPSSTSQLLTLNKFPNRTSGLLETNFSVTARTAGPGLLSRLQGFRVKITPGQLNQTSRSPVQISGYLNRTHGPVNGTHGLFAGTSLQTLEASDISPGAFNKGSLAFNLQGGLPPSPSLAPDGHTPFPPSPALPTTHGSPPQLHPLFPDPSTTMPNSTAPHPVTMYPHPRNLSQET
B2: IL-5: mouse interleukin 5 (R&D Systems), haematopoietic growth factor (protein, UniProt P04401 21-133, looked up)
Interleukin-5: MEIPMSTVVKETLTQLSAHRALLTSNETMRLPVPTHKNHQLCIGEIFQGLDILKNQTVRGGTVEMLFQNLSLIKKYIDRQKEKCGEERRRTRQFLDYLQEFLGVMSTEWAMEG
B3: M-CSF: murine macrophage colony stimulating factor (R&D Systems), haematopoietic growth factor (protein, UniProt P07141 33-552, looked up)
Macrophage colony-stimulating …: KEVSEHCSHMIGNGHLKVLQQLIDSQMETSCQIAFEFVDQEQLDDPVCYLKKAFFLVQDIIDETMRFKDNTPNANATERLQELSNNLNSCFTKDYEEQNKACVRTFHETPLQLLEKIKNFFNETKNLLEKDWNIFTKNCNNSFAKCSSRDVVTKPDCNCLYPKATPSSDPASASPHQPPAPSMAPLAGLAWDDSQRTEGSSLLPSELPLRIEDPGSAKQRPPRSTCQTLESTEQPNHGDRLTEDSQPHPSAGGPVPGVEDILESSLGTNWVLEEASGEASEGFLTQEAKFSPSTPVGGSIQAETDRPRALSASPFPKSTEDQKPVDITDRPLTEVNPMRPIGQTQNNTPEKTDGTSTLREDHQEPGSPHIATPNPQRVSNSATPVAQLLLPKSHSWGIVLPLGELEGKRSTRDRRSPAELEGGSASEGAARPVARFNSIPLTDTGHVEQHEGSSDPQIPESVFHLLVPGIILVLLTVGGLLFYKWKWRSHRDPQTLDSSVGRPEDSSLTQDEDRQVELPV

Test system: myeloid progenitors derived from mouse embryonic stem cells (D3 ES cells) on microcarriers
Test: mESC-based cell assay for regenerative drugs: conversion of myeloid progenitors to macrophage (DQ-ovalbumin)
Settings: 48 h, triplicate, basal level 1%
Method: A screen was performed to identify regenerative drugs capable of stimulating the myeloid lineages of the haematopoietic system. The screen was performed by using a series of culture steps to differentiate mouse embryonic stem cells (mESC) seeded on microcarriers into progenitors of the myeloid lineages, and subsequently subjecting these to culture conditions in the presence or absence of the lineage specific haematopoietic growth factors TPO, M-CSF and IL-5, or the control compound Vitamin C which is reported to affect cell survival but is not a haematopoietic growth factor. After 48 hours the effect on myeloid cell differentiation was assessed using the appearance of macrophages as a surrogate assay. This screen identified TPO and M-CSF as haematopoietic regenerative drugs capable of stimulating the myeloid lineage.
On the day preceding day 1 of the experiment, approximately 1.5×10^4 biotinylated micocarriers equilibrated in medium A (IMDM (Gibco), 15% KOSR, 1% NEAA, 0.5% pen/strep, 0.1 mM β-ME, 1000 U/ml LIF and 1.5×10^−4 M, 1-thioglycerol (MTG; Sigma)) were added to 100 ml of medium A containing approximately 4.5×10^6 ES cells, split into three equal aliquots placed in wells of a 100 mm square petri dish (Bibby Sterilin) and incubated overnight.
In order to prepare myeloid progenitors a two step method was employed. Beads seeded with mESC as described above were incubated in IMDM containing […] retinoic acid for 72 h. The beads were then washed in PBS and transferred to Stemline™ Haematopoietic Expansion Medium (Sigma) containing 40 ng/ml SCF, 2.5 ng TGFβ1, 5 ng/ml BMP2 and 20 ng/ml TPO and incubated for 48 h:
Beads blearing myeloid progenitors prepared as described above were mixed, washed in PBS and transferred to the Test Growth Medium (Stemline™Haematopoietic Expansion Medium (Sigma) supplemented with 30 ng/ml IL-3 and 20 ng/ml IL-6). Equal aliquots of approximately 100 beads were dispensed into the wells of a 48 well plate and incubated in the presence or absence of 50 μg/ml Vitamin C, 10 ng/ml IL-5, 20 ng/ml TPO and 20 ng/ml M-CSF. The screen was carried out in triplicate in wells of separate plates placed in the same incubator.
After 48 h, 1 mg of the macrophage assay reagent DQ-ovalbumin (Molecular Probes) was made up in 0.4 ml PBS and added to each well at a dilution of 1:100. Following incubation for at least 4 h, the medium was aspirated and replaced with PBS. The samples were examined on a Nikon TE2000-S inverted epifluorescent microscope using a-FITC filter set to quantitate microcarriers bearing large, round cells internally labelled with green fluorescence.
The results of the screen are reported as the average number (per cent) of microcarriers that were decorated with macrophage. […]

[1] = 20 ng/ml TPO or M-CSF in Test Growth Medium (IL-3, IL-6)

| Molecule | average conversion to macrophage (average number (per cent) of microcarriers decorated with macrophage) [1] [%] | further results |
| --- | --- | --- |
| O=C1O[C@H]([C@@H](O)CO)C(O)=C1O [Vitamin C, Ascorbic acid, reference compound] |  | average conversion to macrophage (average number (per cent) of microcarriers decorated with macrophage) (50 μg/ml Vitamin C in Test Growth Medium (IL-3, IL-6)): 0% |
| B1 | 6 |  |
| B2 |  | average conversion to macrophage (average number (per cent) of microcarriers decorated with macrophage) (10 ng/ml IL-5 in Test Growth Medium (IL-3, IL-6)): 0% |
| B3 | 6 |  |
